The values below come from patent US11020455B2, “Colony stimulating factor for use in pancreatic or colon cancer treatment” (ENDOR TECHNOLOGIES, S.L., priority 2015, dated 2021).

The test system of experiment [1] is sarcoma. To be noted: monotherapy; cited from earlier work.
The subject of experiment [2] is prostate cancer. The note with it: patients with prostate cancer; cited from earlier work.
Experiment [3] concerns melanoma. The note with it: subcutaneous long-term therapy after surgical resection; cited from earlier work.
Experiment [4] deals with Colon-26 SC tumors. Kind of experiment: Antitumoral efficacy in Colon-26 SC tumor model (Balb/C mice). The experiment is classed as in vivo, mouse. The note with it: Colon-26, 10 μg/Kg SC daily, 18 days of treatment. As to the method:
It is depicted the antitumoral efficacy of G-CSF in mouse colorectal SC tumors. BalbC mice bearing colorectal SC tumors were daily treated with subcutaneous G-CSF injection at a dose of 10 μg/kg. Total tumor volume (mm^3±SE) in saline (solid lines) and G-CSF10 μg/kg (dashed lines) groups, for 18 days of treatment are represented.
Depiction of the antitumoral efficacy of G-CSF in colorectal SC tumors. BalbC mice bearing Colon-26 SC tumors, with and without Sephadex papula, were treated daily with subcutaneous G-CSF injection at a dose of 50 ug/kg. […]
(§1) Mouse Models and Tumor Growth Studies Animal procedures met the guidelines of European Community Directive 86/609/EEC and were approved by the Local Ethical Committee. […] All animals were weighed and tumors were measured using manual caliper three times per week. SC tumor volumes were calculated according to the formula described by Attia and Weiss (Attia M A, et. al. “Immunology of spontaneous mammary carcinomas in mice. V. Acquired tumor resistance and enhancement in strain A mice infected with mammary tumor virus” Cancer Res. 1966, vol. 26, pp, 1787-1800), V (mm^3)=0.4×(larger diameter×smaller diameter^2). […]
Antitumoral experiments were carried out on immunocompetent Balb/C tumor-bearing mice treated with Sephadex. […] There were 4 animals per group and their survival was monitored daily (FIG. 6). […]

In experiment [5] the test system is Colon-26 SC tumors. As to the kind of experiment: Effect of Sephadex on G-CSF antitumoral efficacy in Colon-26 model. Format: in vivo, mouse. The note with it: Colon-26 and Sephadex, 50 μg/Kg SC daily, 19 days. As to the method: Depiction of the antitumoral efficacy of G-CSF in colorectal SC tumors. BalbC mice bearing Colon-26 SC tumors, with and without Sephadex papula, were treated daily with subcutaneous G-CSF injection at a dose of 50 ug/kg. Total tumor volume (mm^3±SE) of saline (circle), G-CSF 50 μg/kg (square, abbreviated IT50), Sephadex-Saline (triangle), and Sephadex+G-CSF 50 μg/kg (cross, abbreviated IT-Sephadex.), for 19 days of treatment are represented.
Antitumoral experiments were carried out on immunocompetent Balb/C tumor-bearing mice treated with Sephadex. Sephadex treatments were initiated when SC Colon-26 tumors reached a tumor volume ranging from 90 to 110 mm^3 and 0.5 mL of Sephadex 16% (Sephadex G-150, Pharmacia Fine Chemicals, Sweden) was subcutaneously injected in the left side flank of mice. Control animals included were Saline and Sephadex groups. In this experiment, G-CSF group was treated at a dose of 50 μg/Kg (Filgrastim—Amgen). There were 4 animals per group and their survival was monitored daily (FIG. 6). In this model, Sephadex distracts functional granulocytes from the blood into the Sephadex papula thus abolishing G-CSF antitumoral activity. […]

The subject of experiment [6] is peripheral blood granulocytes. As to the kind of experiment: Peripheral blood granulocyte levels after single subcutaneous G-CSF injection in healthy C57BJL6 mice. Format: in vivo, mouse. The procedure:
(§2) Depiction of the peripheral blood granulocytes levels in healthy C57BJL6 and Athymic nu/nu mice after the subcutaneous injection of a single dose of G-CSF (10 μg/kg) in C57BJL6, and 10, 25, 50 and 100 μg/kg of G-CSF in Athymic nu/nu mice. Blood samples were taken at different time points and peripheral blood granulocytes levels are represented as a total number of granulocytes (GRA×10^9/L).
(§3) As peripheral blood is the only tissue routinely available from mice, the peripheral blood hemogram was also assessed in order to provide information about the behavior of blood cell populations after the subcutaneous injection of different G-CSF doses (Filgrastim—Amgen). […] Inventors especially focused their attention on the distribution of granulocytes in the peripheral blood which was determined at 1, 5 or 2, 6, 10 and 24 hrs after an initial dose of G-CSF subcutaneously. Peripheral blood granulocytes levels were analyzed in healthy (FIG. 7), and tumor-bearing mice (FIG. 8). […]

Experiment [7] has as its system MiaPaca SC tumors. As to the kind of experiment: Antitumoral efficacy in MiaPaca SC tumor model (athymic nu/nu mice). The experiment is classed as in vivo, mouse. The note with it: 10 μg/Kg SC daily, 37 days after treatment. The procedure: It is depicted the antitumoral efficacy of G-CSF in human pancreatic SC tumors. Athymic nu/nu mice bearing MiaPaca SC tumors were daily treated with subcutaneous G-CSF injection at a dose of 10 μg/kg, while GE was injected intraperitoneal at a dose of 80 mg/Kg two times per week during the whole experiment. Total tumor volume (mm^3±SE) in saline (solid lines), G-CSF 10 μg/kg (dashed lines) and GE 80 mg/kg (dotted) groups, for 37 days of treatment are represented.
(§4) Human pancreatic adenocarcinoma cell lines, Panc-1 and MiaPaca cells and the mouse pancreatic adenocarcinoma cells Panc02, were used for pancreatic cancer efficacy studies. Murine colorectal carcinoma cell line, Colon-26 cells, was used for colon cancer efficacy studies. […]
as §1

Experiment [8] has as its system neutrophils in peripheral blood. Kind of experiment: Peripheral blood neutrophil levels in Colon-26 mice with Sephadex. To be noted: Sephadex-treated Colon-26 mice. The experiment is classed as in vivo, mouse. The procedure: Antitumoral experiments were carried out on immunocompetent Balb/C tumor-bearing mice treated with Sephadex. Sephadex treatments were initiated when SC Colon-26 tumors reached a tumor volume ranging from 90 to 110 mm^3 and 0.5 mL of Sephadex 16% (Sephadex G-150, Pharmacia Fine Chemicals, Sweden) was subcutaneously injected in the left side flank of mice. Control animals included were Saline and Sephadex groups. In this experiment, G-CSF group was treated at a dose of 50 μg/Kg (Filgrastim—Amgen). There were 4 animals per group and their survival was monitored daily (FIG. 6). In this model, Sephadex distracts functional granulocytes from the blood into the Sephadex papula thus abolishing G-CSF antitumoral activity.
as §3

Experiment [9] has as its system Panc02 SC tumors. As to the kind of experiment: Antitumoral efficacy in Panc02 SC tumor model (C57BJL6 mice). The note with it: Panc02, 100 μg/Kg SC daily, 20 days of treatment. Format: in vivo, mouse. The procedure:
It is depicted the antitumoral efficacy of G-CSF in murine pancreatic SC tumors. C57BJL6 mice bearing Panc02 SC tumors were daily treated with subcutaneous G-CSF injection at a dose of 100 μg/kg. […]
as §4, §1

The subject of experiment [10] is tumor-infiltrating granulocytes. Kind of experiment: Tumor granulocytes (CD45+CD11b+Ly6G+) by flow cytometry in Colon-26 tumors. The experiment is classed as in vivo, mouse. To be noted: 10 μg/Kg SC, day 5, flow cytometry. The procedure:
Depiction of the tumor granulocyte levels, defined as a CD45+CD11b+Ly6G+ triple positive population, analyzed by flow cytometry from Colon-26 tumors treated with 10 μg/kg of G-CSF during 5 days. Granulocytes cells from tumor are represented as a % of positive cells±SE.
To evaluate the antitumoral capacity of G-CSF in murine colorectal carcinoma, immunocompetent Balb/C mice bearing Colon-26 tumors were treated when SC tumors reached a tumor volume ranging from 90 to 110 mm^3. For G-CSF therapy, Balb/C mice were randomly divided in Saline and G-CSF groups. G-CSF treatment (Filgrastim—Amgen) was applied subcutaneously every day during the whole experiment (FIG. 4). At day 5 of the experiments, 4 animals of each treatment were sacrificed and tumors were collected. Granulocytes (GRA) cells were detected by FACS, analyzing the markers of these cells: CD45+CD11b+Ly6G (FIG. 5). Details about each treatment are described in the present table: […]
(In general: Flow cytometry measures light scatter and fluorescence of single cells or particles in a stream.)

The subject of experiment [11] is Panc-1 SC tumors. As to the kind of experiment: Antitumoral efficacy in Panc-1 SC tumor model (athymic nu/nu mice). Format: in vivo, mouse. The note with it: Panc-1, 10 μg/Kg SC daily, 48 days of treatment. As to the method:
It is depicted the antitumoral efficacy of G-CSF in human pancreatic SC tumors. Athymic nu/nu mice bearing Panc-1 SC tumors were daily treated with subcutaneous G-CSF injection at a dose of 10 μg/Kg, while GE was injected intraperitoneal at a dose of 80 mg/Kg two times per week during the whole experiment. Total tumor volume (mm^3±SE) in saline (solid lines), G-CSF 10 μg/Kg (dashed lines) and GE 80 mg/kg (dotted) groups, for 48 days of treatment are represented.
as §4, §1

Experiment [12] has as its system peripheral blood granulocytes. As to the kind of experiment: Peripheral blood granulocyte levels in athymic nu/nu mice bearing MiaPaca SC tumors. The experiment is classed as in vivo, mouse. The note with it: MiaPaca tumor-bearing nu/nu mice, first SC injection at 10, 25, 50 and 100 μg/kg, blood at 1.5 hr. As to the method: Depiction of peripheral blood granulocytes levels in Athymic nu/nu mice bearing MiaPaca SC tumors after the subcutaneous injection of G-CSF 10, 25, 50 and 100 μg/kg. Blood samples were taken at 1.5 hr and peripheral blood granulocytes levels are represented as a total number of granulocytes (GRA 10^9/L).
As peripheral blood is the only tissue routinely available from mice, the peripheral blood hemogram was also assessed in order to provide information about the behavior of blood cell populations after the subcutaneous injection of different G-CSF doses (Filgrastim—Amgen). The peripheral blood collected from the right femoral artery with a heparinized syringe in vacutainer blood collection tubes containing EDTA (Sarstedt Microvette® CB 300) were immediately subjected to differential blood cell counts (red blood cells (RBCs), white blood cells (WBCs), and blood platelets (PLTs)) and measurement of blood hemoglobin concentration using a blood cell differential automatic analyzer (ABACUS JUNIOR VET). The data for each experimental group were obtained from three to five mice. Inventors especially focused their attention on the distribution of granulocytes in the peripheral blood which was determined at 1, 5 or 2, 6, 10 and 24 hrs after an initial dose of G-CSF subcutaneously. Peripheral blood granulocytes levels were analyzed in healthy (FIG. 7), and tumor-bearing mice (FIG. 8). […]

In experiment [13] the test system is peripheral blood granulocytes. As to the kind of experiment: Peripheral blood granulocyte levels after single subcutaneous G-CSF injection in healthy athymic nu/nu mice. The experiment is classed as in vivo, mouse. As to the method:
as §2
As peripheral blood is the only tissue routinely available from mice, the peripheral blood hemogram was also assessed in order to provide information about the behavior of blood cell populations after the subcutaneous injection of different G-CSF doses (Filgrastim—Amgen). The peripheral blood collected from the right femoral artery with a heparinized syringe in vacutainer blood collection tubes containing EDTA (Sarstedt Microvette® CB 300) were immediately subjected to differential blood cell counts (red blood cells (RBCs), white blood cells (WBCs), and blood platelets (PLTs)) and measurement of blood hemoglobin concentration using a blood cell differential automatic analyzer (ABACUS JUNIOR VET). The data for each experimental group were obtained from three to five mice. Inventors especially focused their attention on the distribution of granulocytes in the peripheral blood which was determined at 1, 5 or 2, 6, 10 and 24 hrs after an initial dose of G-CSF subcutaneously. Peripheral blood granulocytes levels were analyzed in healthy (FIG. 7), and tumor-bearing mice (FIG. 8). C57BJL6 healthy mice were injected with G-CSF 10 μg/kg and healthy athymic nu/nu mice were injected with different doses of G-CSF: 0, 10, 25, 50 and 100 μg/kg (FIG. 7). Athymic nu/nu mice bearing subcutaneous MiaPaca tumor were injected with G-CSF 10, 25, 50 and 100 μg/kg and blood was extracted at 1.5 hr (FIG. 8).

“GM-CSF: Granulocyte Macrophage Colony Stimulating Factor, recombinant protein; only literature results cited”: the “therapeutic benefit in sarcoma” value in experiment [1] is on record as “did not reveal a therapeutic benefit”. In experiment [2], the “therapeutic benefit in prostate cancer patients” value is “therapeutic benefit”. The “therapeutic effect in melanoma patients” value in experiment [3] is “therapeutic effect”.

B1: G-CSF: Granulocyte Colony Stimulating Factor, recombinant protein; Filgrastim (Amgen) used in the experiments (protein, UniProt P09919 31-207, looked up)
Granulocyte …: TPLGPASSLPQSFLLKCLEQVRKIQGDGAALQEKLVSECATYKLCHPEELVLLGHSLGIPWAPLSSCPSQALQLAGCLSQLHSGLFLYQGLLQALEGISPELGPTLDTLQLDVADFATTIWQQMEELGMAPALQPTQGAMPAFASAFQRRAGGVLVASHLQSFLEVSYRVLRHLAQP
modifications: N-terminal methionine (filgrastim)
notes: Granulocyte Colony Stimulating Factor, recombinant protein; Filgrastim (Amgen) used in the experiments
Take B1: the tumor inhibition entry is on record as “up to 60%” in [4] and 50% in [5]. In addition, the “increase of granulocyte levels compared to untreated animals” value is 2.5 fold in [6] (single SC dose 10 μg/Kg); 2.5 fold in experiment [13] (single SC dose 10 μg/Kg); 3.5 fold in experiment [13] (single SC dose 25 μg/Kg); 3.7 fold in experiment [13] (single SC dose 50 μg/Kg); 3.5 fold in experiment [13] (single SC dose 100 μg/Kg). Besides, the “time of maximum peripheral blood granulocyte levels post-G-CSF injection” value in [6] (single SC injection) and in experiment [13] (single SC injection) was 6 h throughout. Further, the “tumor inhibition compared to saline” value in experiment [7] is “up to 55%”; in experiment [9], “around 50%”; in experiment [11], “up to 90%”. The “neutrophils levels in peripheral blood after G-CSF injection” value in experiment [8] is on record as “smoothly recovered”. Also, the “tumor-infiltrating granulocytes (CD45+CD11b+Ly6G+ triple positive population)” value in [10] is on record as “significant increase”. Besides, the “peripheral blood granulocyte levels” value in experiment [12] is “increase in a dose response manner”.
